Data: the nanobody polyreactivity screen of Harvey et al. (2022)

assay: yeast display, Sf9 membrane polyspecificity reagent, FACS + sequencing; frameworks hold sequencing errors
Method in brief: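 Genes from sorted yeast were amplified by colony PCR, read by MiSeq 2 × 250 sequencing and filtered on CDR length. These cells carried a synthetic nanobody library in Saccharomyces cerevisiae BJ5465 and were sorted by FACS into low and high (top ~1%) gates on anti-HA and streptavidin fluorescence. Polyreactivity is labelled according to the gate of origin.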

Sequence | polyreactivity (PSR sort gate)
QVQLVESGGGLVQAGGSLRLSCAASGITFYFYTMGWYRPAPGKERELVAAITSSGGTTYYADSVKGRFTISRDNAKNTVYLQMNSLKPEDTAVYYCAARRWYQSRRGGFDYWGQGTQVTVSS | high polyreactivity
QVQLVESGGGLVQAGGSLRLSCAASGITFYGYAMGWYRPAPGKERELVARITISGRTNYADYVKGRFTISRDNAKNTVYLQMNSLKPEDTAVYYCATLVHWSYPYYYWGQGTQVTVSS | high polyreactivity
QVQLVESGGGLVQAGGSLRLSCAASGITFYGYAMGWYRQAPGKERELVAAISESGGSTYYADSVKGRFTISRDNAKNSVYLQMNRLKEEDTAVYYCASQGYSVYWYSNYWGQCTQVTVSS | low polyreactivity
QVQLVESGGGLVQAGGSLRLSCAASGITFYGYAMGWYRQAPGKERELVAAISESGGSTYYADSVKGRFTISRDNAKNTVYLQMNSLKPEDTAVYYCNAESYSTWSFGHRYEYDYWGQGTQVTVSS | low polyreactivity
QVQLVESGGGLVQAGGSLRLSCAASGITFYGYAMGWYRQAPGKERELVAVITSSGSSTYYADSVKGRFTISRDNAKNTVYLQMNSLKPEDTAVYYCNARPGRRSLRSRTYDYWGQGTQVTVSS | high polyreactivity
QVQLVESGGGLVQAGGSLRLSCAASGITFYGYVMGWYRQAPGKERELVAAISVRGGSTYYADSVKGRFTISRDNAKNTVYLQMNSLKPEDTAVYYSAAWSYAYYYRLRYVSHDYWRQGTQVTVSS | high polyreactivity
QVQLVESGGGLVQAGGSLRLSCAASGITFYHNAMGWYRPAPRKERELVATISRRGGRTYYADSVKGRFTISRDNAKNTVYLQMNSLKPEDTAVYYCAAAQKQSRYDYWGQGTQVTVSS | high polyreactivity
QVQLVESGGGLVQAGGSLRLSCAASGITFYHYAMGWYRQAPGKEREFVASITSSGGSTYYADSVKGRFTISRDNAKNTVYLQMNSLKPDDSAVYYCAARGYNPYGRKVGYLGQGTQVTVSS | high polyreactivity
QVQLVESGGGLVQAGGSLRLSCAASGITFYHYAMGWYRQAPGKERELVAAISRSGGSTSYADSVMGRFTISRDNAKNTVYLQMNSLKPEDTAVYYCAARLVRESEPLGYWGQGTQVTVSS | high polyreactivity
QVQLVESGGGLVQAGGSLRLSCAASGITFYHYAMGWYRQAPGKERELVATISSRGGTTYYADSVKGRFTISRDNAKNTVYLQMNSLKPEDTAVYYCADRTWIIYPVSKYDSWGQGTQVTVSS | high polyreactivity
QVQLVESGGGLVQAGGSLRLSCAASGITFYINAMGWSRQAPRKERALLAGISSGGSTNYADSVKGRFTISRDNAKNTVYLQMNSLKPEDTAVYYCWVSRTYHLDYWGQGTQVTVSS | low polyreactivity
QVQLVESGGGLVQAGGSLRLSCAASGITFYINGMGWYRQAPGKEREFVAAIYDGVNTYYADSVKGRFTISRDNAKNTVYLQMNSLKPEDTAVYYCAADYPPARWEMEYWGQGTQVTVSS | low polyreactivity
QVQLVESGGGLVQAGGSLRLSCAASGITFYKYAMGWYRQAPGKERELVAAITSTGGRTYYADSVKGRFTISGDNAKNSVYLQMNSLKPEDTAVYYCAKVFNQFIEHDYWGQGTQVTVSS | low polyreactivity
QVQLVESGGGLVQAGGSLRLSCAASGITFYKYVMGWYRKAPGKERELVAAISSVGSTYYADSVKGRFTISRDNAKNTVYLQMNSLKPEDTAVYYCAAKYWKWYHYGFGYWGQGTQVTVSS | high polyreactivity
QVQLVESGGGLVQAGGSLRLSCAASGITFYKYVMGWYRQAPGKERELVAAISSVGSTYYADSVKGRFTISRDNAKNTVYLQMNSLKPEDTAVYYCAAKYWKWYHYGFGYWGQGTQVTVSS | high polyreactivity
QVQLVESGGGLVQAGGSLRLSCAASGITFYRNAMGWYRQAPGKEMELVAAITWNGGRTYYADSVKGRFTISRDNAKNTVYLQMNSLKPEDTAVYYCAADSGTRNLASYRYYYWGQATQVTVSS | low polyreactivity
QVQLVESGGGLVQAGGSLRLSCAASGITFYRNAMGWYRQAPGKERELVAAIDVGDGTYYADSVKGRFTISRDNAKNSVYFQMNSLKPEDTAVYYCNKTFLFLEYDSWGQGTQVTVSS | low polyreactivity
QVQLVESGGGLVQAGGSLRLSCAASGITFYRNAMGWYRQAPGKERELVAAIDVGDGTYYADSVKGRFTISRDNAKNTDYLQMNSLKPEDTAVYYCNKTFLFLEYDSWGQGTQVTVSS | low polyreactivity
QVQLVESGGGLVQAGGSLRLSCAASGITFYRNAMGWYRQAPGKERELVAAISRRGGITRYADSVKGRFTISRDNAKNTVYLQMNSLKPEDTAVYYCAKAIGSTALRRATEDYWGQGTQVTVSS | high polyreactivity
QVQLVESGGGLVQAGGSLRLSCAASGITFYRYAMGWYRQAPGKEREFVAAITWGSTYYADSVKGRFTISRDNAKNTVYLQMTSLKPEDTAVYYCNKKGYTVGATVGYWGQGTQVTVSS | low polyreactivity

Sequence | polyreactivity (PSR sort gate)
QVQLVESGGGLVQAGGSLRLSCAASGITFYRYAMGWYRQAPGKERELVAAIRGGGASTYYADSVKGRFTISRDNAKNTVYLQMNSLKPEDTAVYYCAARAARSITNGYWGQGTQVTVSS | high polyreactivity
QVQLVESGGGLVQAGGSLRLSCAASGITFYRYAMGWYRQAPGKERELVAAISRSGGSTYYADSVKGRFTISRDNAKNTVYLQMNSLKPEDTAVDYCAAYILGNRDGYDYWGQGTQVTVSS | high polyreactivity
QVQLVESGGGLVQAGGSLRLSCAASGITFYRYAMGWYRQAPGKERELVAAISWSGGRTYYADSVKGRFTISRDNAKNTVYLQMNSLKPEDTAVYYCNAYLYPYTRLDYWGQGTQVTVSS | high polyreactivity
QVQLVESGGGLVQAGGSLRLSCAASGITFYRYAMGWYRQAPGKERELVATITSGGSTYYADSVKGRFTISRDNAKNTVYLQMNSLKPEDTAVYYCAAESVWTWYYTTAGMDYWGQGTQVTVSS | high polyreactivity
QVQLVESGGGLVQAGGSLRLSCAASGITFYRYDMGWYRQAPGKERELVAAISTRGGSTYYADSVKGRFTISRDNAKNTVYLQMNSLKPEDTAVYYCAKERVGTSLPFKDYYWGQGTQVTVSS | low polyreactivity
QVQLVESGGGLVQAGGSLRLSCAASGITFYSNAMGWYRPAPGKERELVAAISYRGGSTYYADSVKGRFTISRDNAKNTVYLQMNSLKPEDTAVYYCNKEVDWGWGRISYDSWGQGTQVTVSS | low polyreactivity
QVQLVESGGGLVQAGGSLRLSCAASGITFYSYAMGWYRQAPGKERELVAGISGGGGTSYADSVKGRFTISRDNAKNTVYLQMNSLKPEDTAVYYCNVYAYTYYYWAFYTEDYWGQGTQVTVSS | high polyreactivity
QVQLVESGGGLVQAGGSLRLSCAASGITFYTYAMGWYRQAPGKERELVAAITNGGNTSYADSVKGRFTISRDNAKNTVYLQMNSLKPEDTAVYYCAAVVTLPIWGNWYYVRYGYWGQGTQVTVSS | low polyreactivity
QVQLVESGGGLVQAGGSLRLSCAASGITFYTYAMGWYRQAPRKERELVAAISGSGGSTYYADSVKGRFTISRDNAKNTVYLQMNSLKPEDTAVYYCAARWPRGPFGNRHDYWGQGTQVTVSS | high polyreactivity
QVQLVESGGGLVQAGGSLRLSCAASGITFYVHAMGWYRQAPGKERELVASITWSGGSTYYADSVKGRFTISRDNAKNTVYLQMNSLKPEDTAVYYCAHVLYRAYEYWGQGTQVTVSS | low polyreactivity
QVQLVESGGGLVQAGGSLRLSCAASGITFYVYAMGWYRKAPGKERELVAAITSNGASTYYADSVKGRFTISRDNAKNTVYLQMNSLKPEDTAVYYCARRIKFPYHSYVGEYDYWGQGTQVTVSS | low polyreactivity
QVQLVESGGGLVQAGGSLRLSCAASGITFYVYAMGWYRQAPGKEREFVAAISTRDGTTYADSLKGRFTISRDNAKNTVYLQMNSLKPEDTAVYYCAAAYYYDGQQGDFDYWGQGTQVTVSS | low polyreactivity
QVQLVESGGGLVQAGGSLRLSCAASGITFYVYAMGWYRQAPGKERELVAAINYDSGSTYYADSVKGRFTISRDNAKNTVYLQMNSLKPEDTAVYYCATDGVNPFYAYDFWGQGTQVTVSS | low polyreactivity
QVQLVESGGGLVQAGGSLRLSCAASGITFYVYAMGWYRQAPGKERELVAANSSGGGSTYYADSVKGRFTISRDNAKNTVYLQMNSLKPEDTAVYYCNKLFPGTYDGAHGYWGQGTQVTVSS | low polyreactivity
QVQLVESGGGLVQAGGSLRLSCAASGITFYYYAMGWYRQAPGKERELVAAIDTDGSTYYADSVKGRFTISRDNAKNTVYLQMNSLKPEDTAVYYCAAEIEYYPYSGYIYDYWGQGTQVTVSS | high polyreactivity
QVQLVESGGGLVQAGGSLRLSCAASGITFYYYAMGWYRQAPGKERELVAAISRSGITYYADSVKGRFTISRDNAKNTVYLQMNSLKPEDTAVYYCAAGRRFDQSMYYWGQGTQVTVSS | high polyreactivity
QVQLVESGGGLVQAGGSLRLSCAASGITFYYYAMGWYRQAPGKERELVAAISVSGGSTYYADSVKGRFTISRDNAKNTVYLQMNSLKPEDTAVYYCAAADLLSYTYPEYDYWGQGTQVTVSS | low polyreactivity
QVQLVESGGGLVQAGGSLRLSCAASGITFYYYAMGWYRQAPGKERELVAAISWSGGRTYYADSVKGRFTISRDNAKNTVYLQMNSLKPEDTAVYYCAAGYYLYHFVSLYGGDYWGQGTQVTVSS | high polyreactivity
QVQLVESGGGLVQAGGSLRLSCAASGITFYYYAMGWYRQAPGKERELVADISSSGGSTYYADSVKGRFTISRDNAKNTVYLQMNSLKPEDTAVYYCNAVYRWYRPRVRFFRYDYWGQGTQVTVSS | high polyreactivity
QVQLVESGGGLVQAGGSLRLSCAASGITIGRYAMGWYRQAPGKERELVAAISWSGGSTYYADSVKGRFTISRDNAKNTVYLQMNSLKPEDTAVYYCNKLRRYSEYNADDGDYWGQGTQVTVSS | high polyreactivity
